# Measured values from the RNAGym collection of RNA variant scans (doi:10.1073/pnas.2313332121).
# B1: TPR t1 (parent)
# chain: GACCAAUCUGCCCUCAGAGCUCGAGAACAUCUUCGGAUGCAGAGGAGGCAGGCUUCGGUGGCGCGAUAGCGCCAACGUCCUCAACCUCCAAUGCAUCCCACCACAUGAUGAUGCCUGAAGAGCCUUGGUUUUUUG
# Variants of: B1
# Experiment: polymerase ribozyme fitness, log enrichment relative to wild type (log ratio); higher = more active; in vitro selection for triplet polymerase activity
# Method in brief: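 Mutant libraries of each subunit of a heterodimeric triplet polymerase ribozyme were built by PCR and transcribed. Each library went through one round of in vitro selection in triplicate: annealing with biotinylated primer, partner subunit and triplets, frozen incubation at −7 °C, gel excision of extended constructs, streptavidin-bead capture and RT-PCR. Input and output libraries were Illumina-sequenced; only genotypes with ≥10 input reads and ≥1 read per output were kept. Fitness is log2(genotype enrichment/wild-type enrichment), using inverse-variance-weighted replicate averages.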
row,Variant,polymerase ribozyme fitness (log ratio)
1,GACCAAUCUGCCCUCAGAGAUCGAGAACAUCUUCGGAUUCAGAGGAGGCAGGCUUCGGUGGCGCGAUAGCGCCAACGUCCUCAACCUCCAAUGCAUCCCACCACAUGAUGAUGCCUGAAGAGCCUUGGUUUUUUG [C20A G39U],-4.11
2,GACCAAUCUGCCCUCAGAGAUCGAGAACAUCUUCGGAUGCAGAGGAGGCAGGCUUCGGUGGCGGGAUAGCGCCAACGUCCUCAACCUCCAACGCAUCCCACCACAUGAUGAUGCCUGAAGCGCCUUGGUUUUUUG [C20A C64G U92C A121C],-6.25
3,GACCAAUCUGCCCUCAGAGAUCGAGAACAUCUUCGGAUGCAGAGGAGGCAGGAUUCGGAGGCGCGAUACCGCCAACGUCCUCAACCUCCAAUGCAUCCCACCACAUGAUGAUGCCUGAAGAGCCUUGGUUUUUUG [C20A C53A U59A G69C],-4
4,GACCAAUCUGCCCUCAGAGAUCGAGAACAUCUUCGGAUGAAGAGGAGGCAGGCUUCGGUGGCGCGAUAGCGCCAACGUCCUCAACCUCCAAUGCAUCCCACCACAUGAUGAUGCAUGAAGAGCCUUGGUUUUUUG [C20A C40A C115A],-4.58
5,GACCAAUCUGCCCUCAGAGAUCGAGAACAUCUUCGGAUGCAGAGGAGGCAGGCUUCGGUGGCGCGAUAGCGGCAUCGUCCUCAAACUCCAAUGCAUCCCACCACAUGAUUAUGCCUGAAGAGCCUUGGUUUUUUG [C20A C72G A75U C85A G110U],-5.51
6,GACCAAUCUGCCCUCAGAGAUCGAGAACAUCUUCGGAUGCAGAGGAGGCAGGCUUAGGUGGCGCGAUAGCGCCAACGUCCUCAACCUCCAAUGCAUCUCACCACAUGAUGAUGCCUGAAGAGCCUUGGUUUUUUG [C20A C56A C98U],-3.64
7,GACCAAUCUGCCCUCAGAGAUCGAGAACAUCUUCGGAUGCAGAGGAGGCAGGAUUCGGUGGCGCGAUAGCGCCAACGUUCUCAACCUCCAAUGCAUCCCACCACAUGAUUAUGCCUGAAGAGCCUUGGUUUUUUG [C20A C53A C79U G110U],-4.5
8,GACCAAUCUGCCCUCAGAGAUCGAGAACAUCUUCGGAUGCAGAGGAGGCAGGCUUCGGUGGCGCGAUAGCGGCAACGUCCUCAACCUCCAAUGCUUCCCACCACAUGAUGAUCCCUGAAGAGCCUUGGUUUUUUG [C20A C72G A95U G113C],-6.92
9,GACCAAUCUGCCCUCAGAGAUCGAGAACAUCUUCGGAUGCAGAGGAGGCAGGCUUCGGUGGCGCGAUAGCGCCAACGUCCUCAACAUCCAAUGCAUCCCACCACAUGAUGAAGCCUGAAGAGCCGGGGUUUUUUG [C20A C86A U112A U125G U126G],-1.97
10,GACCAAUCUGCCCUCAGAGAUCGAGAACAUCUUCGGAUGCAGAGGAGGCAGGCUUCGGUGGCGCGAUAGCGCCAACGUCCUCAACCUCCAAUGCAUCCCACCAAAUGAUGAUGCCUGAAGAGGCUUGGUUUUUUG [C20A C104A C123G],-4.45
11,GACCAAUCUGCCCUCAGAGAUCGAGAACAUCUUCUGAUGCAGAGGAGGCAGGCUUCGGUGGCGCGAUAGCGCCAACGUCCUCAACCUCCAAUGCAUCCCUCCACAUGAUGAUGAUUGAAGAGCCUUGGUCUUUUG [C20A G35U A100U C114A C115U U130C],-6.44
12,GACCAAUCUGCCCUCAGAGAUCGAGAACAUCUUUGGAUGCAGAGGAGGCAGGCUUCGGUGGCGCGAUAGCGUCAAAGUCCUAAACCUCCAAUGCAUCCCACCACAUGAUGAUGCCUGAAGCGCCUUGGUUUUUUU [C20A C34U C72U C76A C82A A121C G135U],-6.49
13,GACCAAUCUGCCCUCAGAGAUCGAGAACAUCUUCGGAUGCAGAGGAGGCAGGAUUCGGUGGCGCGAUAGCGCCAACGGCCUGAACCUCCAAUGCAUCCCACCACAUGAUGAAGCCUGAAGAGCCUUGGUUUUUUG [C20A C53A U78G C82G U112A],-0.686
14,GACCAAUCUGCCCUCAGAGAUCGAGAACAUCUUCGGAUGCAGAGGAGGAAGGCUUCGGUGGCACGAUAGCGCCAACGUCCACAACCUCCAAUGCAUCCCACCAUAUGAUGAUGCCUGAACAGCCUUGGUUUUAUU [C20A C49A G63A U81A C104U G120C U133A G135U],-4.91
15,GACCAAUCUGCCCUCAGAGAUCGAGAACAUCUUCGGAUGCAGAGGAGGCAGGCUUCGGUGGCGCGAUAGCGCCAACGUCCUCAACCUCCAAUGCAUCCCACCACAUGAUGAUGCGUGAAGAGCCUUGGUUUUUUG [C20A C115G],-4.5
16,GACCAAUCUGCCCUCAGAGAUCGAGAACAUCUUCGGAUGCAGAGGAGGCAGGCUUCGGUGGCGCGAUAGGGCCAACGUCCUCAACCUCCAAUGCAUCCCACCACAUGAUGAUGCCUGAAGAGCCUUGGUUUUUUG [C20A C70G],-5.59
17,GACCAAUCUGCCCUCAGAGAUCGAGAACAUCUUCGGAUGCAGAGGAGGCAGGCUUCGGUGGCGCGAUAGAGCCAACGUCCUCAACCUCCAAUGCAUCCCACCACAUGAUGAUGCCUGAAGAGCCUUGGUUUUUUG [C20A C70A],-4.86
18,GACCAAUCUGCCCUCAGAGAUCGAGAACAUCUUCGGAUGAAGAGGAGGCAGGCUUCGGUGGCGCGAUAGCGCCAAGGUCCUCAACCUCCAAUGCAUCCCACCACAUGAUGAUGCCUGAAGAGCAUUGGUUUUUUG [C20A C40A C76G C124A],-2.76
19,GACCAAUCUGCCCUCAGAGAUCGAGAACAUCUUCGGAUACAGAGGAGGCAGGCUUCGGUGGCGCGAUAGCGCCAACUUCCUCAACCUCCAAUGCAUCCCACCACAUGAUGAUGCCUGAAGGGCCUUGGUUUUUUG [C20A G39A G77U A121G],-1.8
20,GACCAAUCUGCCCUCAGAGAUCGAGAACAUCUUCGGAUGCAGAGGAGGCAGGCUUCGGUGGCGCGAUAGCGGCAACGUCCACAACCUCCAAUGCAUCCCACCACAUGAAGAUGCCUGCAGAACCUUGGUUUUUUG [C20A C72G U81A U109A A118C G122A],-5.92
21,GACCAAUCUGCCCUCAGAGAUCGAGAACAUCUUCGAAUGCAGAGGAGGCAGGCUUCGGUGGCGCGAUAGCGCCAACGUCCUCAACCUCCAAUGCAUCCCACCACAUGAUGAUGCCUGAAGAGCCUUGGUUUUUUG [C20A G36A],-4.23
